The subject of one experiment is cynoBCMA Fc(kih). As to the kind of experiment: Biacore T200 SPR, anti-BCMA antibodies to recombinant cynomolgus BCMA Fc(kih); cyno/hu affinity gap. It is filed as binding. The following applies: analyte cynoBCMA Fc(kih), 1:1 Langmuir, 25° C. On the procedure: Assessment of binding of anti-BCMA antibodies to recombinant BCMA by surface plasmon resonance (SPR) as follow. All SPR experiments were performed on a Biacore T200 at 25° C. with HBS-EP as running buffer (0.01 M HEPES pH 7.4, 0.15 M NaCl, 3 mM EDTA, 0.005% Surfactant P20, Biacore, Freiburg/Germany). The avidity of the interaction between anti-BCMA antibodies and recombinant BCMA Fc(kih) (human and cynomolgus) was determined. Biotinylated recombinant human and cynomolgus BCMA Fc(kih) were directly coupled on a SA chip following instructions (Biacore, Freiburg/Germany). The immobilization level ranged from 200 to 700 RU. The anti-BCMA antibodies were passed at a 2-fold concentration range (1.95 to 500 nM) with a flow of 30 μL/minutes through the flow cells over 120 seconds. The dissociation was monitored for 180 seconds. Bulk refractive index differences were corrected for by subtracting the response obtained on the reference flow cell. Here, the anti-BCMA antibodies were flown over an empty surface previously activated and deactivated as described in the standard amine coupling kit. Apparent kinetic constants were derived using the Biacore T200 Evaluation Software (vAA, Biacore AB, Uppsala/Sweden), to fit rate equations for 1:1 Langmuir binding by numerical integration, despite the bivalency of the interaction for comparison purposes. The affinity of the interaction between anti-BCMA antibodies and recombinant human BCMA Fc(kih) was also determined. Anti-human Fab antibody (GE Healthcare) was directly coupled on a CMS chip at pH 5.0 using the standard amine coupling kit (Biacore, Freiburg/Germany). The immobilization level was about 6500 RU. Anti-BCMA antibody was captured for 90 seconds at 25 nM. Recombinant human BCMA Fc(kih) was passed at a 4-fold concentration range (1.95 to 500 nM) with a flow of 30 μL/minutes through the flow cells over 120 seconds. The dissociation was monitored for 120 seconds. Bulk refractive index differences were corrected for by subtracting the response obtained on reference flow cell. […] Kinetic constants were derived using the Biacore T100 Evaluation Software (vAA, Biacore AB, Uppsala/Sweden), to fit rate equations for 1:1 Langmuir binding by numerical integration (Table 4).
Based on the affinity values described in Example 2, the affinity of anti-BCMA antibodies to human BCMA vs. cynomolgus BCMA were compared and cyno/hu affinity ratio (gap) values were calculated (Table 5). Affinity cyno/hu gap was calculated as affinity of antibody to cynomolgus BCMA divided by affinity to human BCMA and means that BCMA antibody binds to human BCMA with x fold binding affinity than to cynomolgus BCMA, where x=cyno/hu gap value.
Background: Surface plasmon resonance follows binding to a sensor surface in real time, without labels.

A further experiment concerns the target T1, huBCMA Fc(kih) (Homo sapiens, UniProt Q02223).
T1 construct: The extracellular domains of human and cynomolgus BCMA comprised methionine 4 to asparagine 53, and methionine 4 to asparagine 52, respectively; made in house; host or cells: HEK EBNA cells
T1 sequence (Q02223 4-53): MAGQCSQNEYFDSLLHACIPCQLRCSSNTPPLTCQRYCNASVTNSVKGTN
As to the kind of experiment: Biacore T200 SPR, anti-BCMA antibodies to recombinant human BCMA Fc(kih). It counts as binding. The following applies: analyte huBCMA Fc(kih), 1:1 Langmuir, 25° C. On the procedure: Assessment of binding of anti-BCMA antibodies to recombinant BCMA by surface plasmon resonance (SPR) as follow. All SPR experiments were performed on a Biacore T200 at 25° C. with HBS-EP as running buffer (0.01 M HEPES pH 7.4, 0.15 M NaCl, 3 mM EDTA, 0.005% Surfactant P20, Biacore, Freiburg/Germany). The avidity of the interaction between anti-BCMA antibodies and recombinant BCMA Fc(kih) (human and cynomolgus) was determined. Biotinylated recombinant human and cynomolgus BCMA Fc(kih) were directly coupled on a SA chip following instructions (Biacore, Freiburg/Germany). The immobilization level ranged from 200 to 700 RU. The anti-BCMA antibodies were passed at a 2-fold concentration range (1.95 to 500 nM) with a flow of 30 μL/minutes through the flow cells over 120 seconds. The dissociation was monitored for 180 seconds. Bulk refractive index differences were corrected for by subtracting the response obtained on the reference flow cell. Here, the anti-BCMA antibodies were flown over an empty surface previously activated and deactivated as described in the standard amine coupling kit. Apparent kinetic constants were derived using the Biacore T200 Evaluation Software (vAA, Biacore AB, Uppsala/Sweden), to fit rate equations for 1:1 Langmuir binding by numerical integration, despite the bivalency of the interaction for comparison purposes. The affinity of the interaction between anti-BCMA antibodies and recombinant human BCMA Fc(kih) was also determined. Anti-human Fab antibody (GE Healthcare) was directly coupled on a CMS chip at pH 5.0 using the standard amine coupling kit (Biacore, Freiburg/Germany). The immobilization level was about 6500 RU. Anti-BCMA antibody was captured for 90 seconds at 25 nM. Recombinant human BCMA Fc(kih) was passed at a 4-fold concentration range (1.95 to 500 nM) with a flow of 30 μL/minutes through the flow cells over 120 seconds. The dissociation was monitored for 120 seconds. Bulk refractive index differences were corrected for by subtracting the response obtained on reference flow cell. Here, recombinant BCMA was flown over a surface with immobilized anti-human Fab antibody but on which HBS-EP has been injected rather than anti-BCMA antibody. Kinetic constants were derived using the Biacore T100 Evaluation Software (vAA, Biacore AB, Uppsala/Sweden), to fit rate equations for 1:1 Langmuir binding by numerical integration (Table 4).

The next experiment deals with T2, huBCMA on HEK cells (Homo sapiens, UniProt Q02223).
T2 construct: expressed in transfected cells; host or cells: HEK cells (HEK-huBCMA)
T2 sequence (Q02223 1-184): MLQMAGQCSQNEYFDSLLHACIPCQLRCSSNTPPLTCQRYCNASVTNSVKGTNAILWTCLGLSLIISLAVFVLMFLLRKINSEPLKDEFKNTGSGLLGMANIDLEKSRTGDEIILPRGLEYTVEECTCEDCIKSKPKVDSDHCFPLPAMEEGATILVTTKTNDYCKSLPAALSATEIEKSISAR
The experiment can be described thus: Binding of IgG variants on HEK-huBCMA cells (flow cytometry). The text has this: FIGS. 18A-18B. FIG. 18A: Binding affinity of BCMA antibodies on HEK-huBCMA cells as measured by flow cytometry. The anti-BCMA antibodies were used as first antibody then a secondary PE-labeled anti-human Fc was used as detection antibody. […] FIG. 18B: Binding affinity of BCMA antibodies on HEK-huBCMA cells as measured by flow cytometry. The anti-BCMA antibodies were used as first antibody then a secondary PE-labeled anti-human Fc was used as detection antibody.
Due to their experience the inventors selected out of these 70 clones further 27 clones based on their binding properties to huBCMA, cynoBCMA, murineBCMA, and ratio, measured in different assays. Out of these clones 4VH and 9VL clones were selected, which results in […]. Binding affinity on HEK-huBCMA cells was measured (FIG. 18 and Table 2E). […] However Mab21, Mab 22, Mab27, Mab33, Mab39, and Mab42 were selected due to their overall properties, like affinity for huBCMA, cynoBCMA, binding as bispecific antibody to BCMA-positive multiple myeloma cell lines H929, L363 and RPMI-8226 by flow cytometry, killing potency of myeloma cells H929, L363 and RPMI-8226, of viable myeloma plasma cells from patient bone marrow aspirates, and pharmacokinetics (PK)) and pharmacodynamics (killing of BCMA positive cells) data in cynomolgus monkeys.
Background: Flow cytometry measures light scatter and fluorescence of single cells or particles in a stream.

Substitutions are numbered along the chain they refer to.

B1: Mab 21: anti-BCMA antibody, VH SEQ ID NO:10, VL SEQ ID NO:12 (antibody, V domains shown)
VH: EVQLLESGGGLVQPGGSLRLSCAASGFTFSDNAMGWVRQAPGKGLEWVSAISGPGSSTYYADSVKGRFTISRDNSKNTLYLQMNSLRAEDTAVYYCAKVLGWFDYWGQGTLVTVSS
VL: EIVLTQSPGTLSLSPGERATLSCRASQSVSEYYLAWYQQKPGQAPRLLIEHASTRATGIPDRFSGSGSGTDFTLTISRLEPEDFAVYYCQQYGYPPDFTFGQGTKVEIK
modifications: Variable region VH; Variable region VL
As to B1, in the experiment with cynoBCMA Fc(kih), the “Koff” value stood at 0.000235 s⁻¹ and the “Kon” value came to 491000 M⁻¹ s⁻¹. For the same molecule, in the experiment with huBCMA Fc(kih), the “Koff” value stood at 4.39e-05 s⁻¹ and the “Kon” value was 851000 M⁻¹ s⁻¹. Further, the “binding to huBCMA on HEK cells compared with Mab 83A10” value (“binding … compared with Mab 83A10” below) with huBCMA on HEK cells was “not significantly better”.

B2: Mab 22: anti-BCMA antibody, VH SEQ ID NO:10, VL SEQ ID NO:13 (antibody, V domains shown)
VH: B1 VH
VL: B1 VL with E31S, E50S, H51G, S53G, T54S
modifications: Variable region VH; Variable region VL Mab22
Consider B2, for which, in the experiment on cynoBCMA Fc(kih), the “Koff” value stood at 0.000442 s⁻¹ and the “Kon” value was found to be 454000 M⁻¹ s⁻¹. Also, in the experiment with huBCMA Fc(kih), the “Koff” value turned out to be 5.15e-05 s⁻¹ and the “Kon” value was 814000 M⁻¹ s⁻¹. The “binding … compared with Mab 83A10” value in the experiment with huBCMA on HEK cells is “not significantly better”.

B3: Mab 27: anti-BCMA antibody, VH SEQ ID NO:38, VL SEQ ID NO:12 (antibody, V domains shown)
VH: EVQLLESGGGLVQPGGSLRLSCAASGFTFSSAPMGWVRQAPGKGLEWVSAISYIGHTYYADSVKGRFTISRDNSKNTLYLQMNSLRAEDTAVYYCAKVLGWFDYWGQGTLVTVSS
VL: B1 VL
modifications: Mab27 VH; Variable region VL
With B3, in the experiment with cynoBCMA Fc(kih), the “Koff” value stood at 0.000455 s⁻¹ and the “Kon” value worked out at 216000 M⁻¹ s⁻¹. In the experiment with huBCMA Fc(kih), the “Koff” value came to 5.93e-05 s⁻¹ and the “Kon” value is 359000 M⁻¹ s⁻¹. Besides, the “binding … compared with Mab 83A10” value with huBCMA on HEK cells was “not significantly better”.

B4: Mab 39: anti-BCMA antibody, VH SEQ ID NO:40, VL SEQ ID NO:12 (antibody, V domains shown)
VH: B1 VH with S30T, D31Q, G53P, P54T, S56F
VL: B1 VL
modifications: Mab39 VH; Variable region VL
For the molecule B4, in the experiment with cynoBCMA Fc(kih), the “Koff” value came out at 0.000467 s⁻¹ and the “Kon” value turned out to be 215000 M⁻¹ s⁻¹. In addition, in the experiment with huBCMA Fc(kih), the “Koff” value turned out to be 5.58e-05 s⁻¹ and the “Kon” value worked out at 361000 M⁻¹ s⁻¹. In addition, the “binding … compared with Mab 83A10” value with huBCMA on HEK cells is “not significantly better”.

B5: Mab 33: anti-BCMA antibody, VH SEQ ID NO:39, VL SEQ ID NO:12 (antibody, V domains shown)
VH: B1 VH with S30Y, D31T, S52N, G53R, P54F, S56G
VL: B1 VL
modifications: Mab33 VH; Variable region VL
Consider B5, for which, in the experiment on cynoBCMA Fc(kih), the “Koff” value was found to be 9.76e-05 s⁻¹ and the “Kon” value was determined as 132000 M⁻¹ s⁻¹. Also, in the experiment with huBCMA Fc(kih), the “Koff” value is 3.55e-05 s⁻¹ and the “Kon” value was 200000 M⁻¹ s⁻¹.

B6: Mab 42: anti-BCMA antibody, VH SEQ ID NO:10, VL SEQ ID NO:14 (antibody, V domains shown)
VH: B1 VH
VL: B1 VL with E31D, Y32E, A35S, E50H, H51S, T75A
modifications: Variable region VH; Variable region VL Mab42
On to B6, for which, in the experiment on cynoBCMA Fc(kih), the “Koff” value is 0.000453 s⁻¹ and the “Kon” value was 707000 M⁻¹ s⁻¹. Further, in the experiment with huBCMA Fc(kih), the “Koff” value worked out at 0.000298 s⁻¹ and the “Kon” value turned out to be 803000 M⁻¹ s⁻¹. In addition, the “binding … compared with Mab 83A10” value in the experiment with huBCMA on HEK cells is “not significantly better”.

These data come from US20220002427A1, “BISPECIFIC ANTIBODY AGAINST BCMA AND CD3 AND AN IMMUNOLOGICAL DRUG FOR COMBINED USE IN TREATING MULTIPLE MYELOMA” (ENGMAB SARL, priority 2016, published 2022).
